The values below come from publication PMC9805502.

This assay concerns the target HilD^Q39E,N44D,H95L mutant (recombinant) (Salmonella enterica serovar Typhimurium strain 14028s). As to the kind of experiment: mass photometry.

“HilD^Q39E,N44D,H95L mutant (recombinant) (natural protein)”: the stoichiometry N was found to be 2.
